We go through eight molecules from patent US12723100 (CSPC MEGALITH BIOPHARMACEUTICAL, dated 2026).

T1: full-length human Nectin-4 on cells (human, UniProt Q96NY8 32-510)
T1 sequence: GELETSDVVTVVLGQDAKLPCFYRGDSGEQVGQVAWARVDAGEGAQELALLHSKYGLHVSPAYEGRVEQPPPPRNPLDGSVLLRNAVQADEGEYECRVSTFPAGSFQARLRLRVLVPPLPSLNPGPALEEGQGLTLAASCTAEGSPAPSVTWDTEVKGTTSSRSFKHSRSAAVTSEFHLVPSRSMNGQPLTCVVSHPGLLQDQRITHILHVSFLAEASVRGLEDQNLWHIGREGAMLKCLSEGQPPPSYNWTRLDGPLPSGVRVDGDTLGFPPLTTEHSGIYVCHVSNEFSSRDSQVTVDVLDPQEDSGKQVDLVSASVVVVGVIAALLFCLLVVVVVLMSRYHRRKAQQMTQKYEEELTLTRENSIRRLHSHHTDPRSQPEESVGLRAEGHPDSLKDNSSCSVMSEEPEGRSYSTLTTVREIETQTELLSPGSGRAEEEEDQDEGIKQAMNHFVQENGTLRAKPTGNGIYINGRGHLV

T2: human Nectin-1 with His tag (ACROBiosystems, catalog number PV1-H5223) (human, UniProt Q15223 31-355, biotinylated in Example 3 (sites not given))
T2 construct: Bought protein; also called biotinylated human Nectin-1
T2 sequence: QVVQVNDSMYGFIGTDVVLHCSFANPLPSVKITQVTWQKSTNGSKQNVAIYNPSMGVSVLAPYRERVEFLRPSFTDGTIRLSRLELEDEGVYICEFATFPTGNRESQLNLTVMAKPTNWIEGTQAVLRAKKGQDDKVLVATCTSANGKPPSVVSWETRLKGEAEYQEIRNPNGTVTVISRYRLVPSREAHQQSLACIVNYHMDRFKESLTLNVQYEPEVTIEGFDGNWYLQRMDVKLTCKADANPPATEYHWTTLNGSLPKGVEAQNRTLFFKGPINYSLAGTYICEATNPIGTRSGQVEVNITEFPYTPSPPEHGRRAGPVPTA

T3: human Nectin 2 (ACROBiosystems, Catalog no: PV2-H52E2) (human, UniProt Q92692 32-360)
T3 construct: extracellular domain
T3 sequence (looked up): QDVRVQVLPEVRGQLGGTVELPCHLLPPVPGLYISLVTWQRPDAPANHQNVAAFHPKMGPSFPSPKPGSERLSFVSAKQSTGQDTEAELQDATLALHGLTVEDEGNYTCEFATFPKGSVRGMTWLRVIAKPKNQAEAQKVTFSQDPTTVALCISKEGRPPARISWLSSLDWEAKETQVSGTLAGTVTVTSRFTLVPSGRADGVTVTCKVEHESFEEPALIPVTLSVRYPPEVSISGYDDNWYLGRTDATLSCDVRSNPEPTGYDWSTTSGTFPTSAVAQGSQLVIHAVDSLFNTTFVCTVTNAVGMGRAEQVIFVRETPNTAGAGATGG

T4: cynomolgus monkey Nectin-4 (cynomolgus monkey, UniProt Q96NY8 32-510 (human entry))
T4 construct: Transiently expressed on 293T cells; also called Cyno Nectin-4
T4 chain: T1 sequence with V39A, I230V, A437T

B1: N4_mAb 4 (antibody, human IgG1, V domains shown)
VH: DVQLQESGPDLVKPSQSLSLTCTVTGYSITSAYNWHWIRQFPGNKLEWMGYIHYSGRTNYNPSLKSRISITRDTSKNQFFLQLNSLTTEDTATYYCARWITTATGWYLDVWGAGTTVTVSS
VL: not shown
notes: Tested as chimera (human IgG1/kappa constants); not shown: human IgG1 constant region (Uniprot P01857); human Kappa light chain constant region (UniProt P01834)
B2: N4_mAb 6 (antibody, human IgG1, V domains shown)
VH: QVQLQQSGPELVKPGASVRISCKASGYTFTTYYIHWVKQRPGQGLEWIGWIYPGNVNTKYTENFKDKATLTADKSSSTAYMQLSSLTSEDSAVYFCARGLYYFDFWGQGTTLTVSS
VL: SIVMTQTPKFLLVSAGDRVTITCKASQSVNNDVAWYQQKPGQSPKLLIYYASNRDTGVPDRFTGSGFGTDFTFTISSVQAEDLAVYFCQQDYSSPYTFGGGTKLEIK
notes: Tested as chimera (murine variable regions, human IgG1/kappa constants); not shown: human IgG1 constant region (Uniprot P01857); human Kappa light chain constant region (UniProt P01834)
B3: N4_mAb 8 (antibody, human IgG1, V domains shown)
VH: B2 VH with E10V, T31S, T61N, K65R, A79S, L100I, F105Y
VL: B2 VL with S1I, Q38E, F67Y, S77T, Q89H, Y96F, G100S
notes: as for B2
B4: N4_mAb 7 (antibody, human IgG1, V domains shown)
VH: QVQLQQSGPELVKPGASVKMSCKASGYTFTTYYIHWVKQRPGQGLEWIGWIYPGNAGIKSNEKFKGKTTLTADKSSSTAYMLLSSLTSEDSAIYFCARGVYFFDYWGQGTTLTVSS
VL: B2 VL with A34S, Y36F, D55Y, T63S, F67Y, S76T, S77T
notes: as for B2
B5: N4_mAb 3 (antibody, human IgG1, V domains shown)
VH: EVQLQQSGAELVKPGASVKLSCTVSGFNIKDTYMHWVKQRPEQGLEWIGRIDPANGNTKYDPKFQGKATIIADKASNTAYLQLSSLTSEDAAVYYCAHYYGSSYFAMDCWGQGTSVTVSS
VL: DIVMTQSHKFMSTSVGDRVSITCKASQDVSTAVAWYQQKPGQSPKLLIYWASTRHTGVPDRFTGSGSGTDYTLTISSVQTEDLALYYCQQHYSTPLTFGAGTKLELK
notes: as for B1
B6: N4_mAb 2 (antibody, human IgG1, V domains shown)
VH: QVQLKQSGPNLVQPSQSLSITCTVSGFSLTTYGAHWVRQSPGKGLEWLGVIWRGGSTDYNAAFMSRLSITKDNSKSQVFFKMNSLQADDTAIYYCAKIGYDGYAMDNWGQGTSVTVSS
VL: DFQVTQSPASLSASVGETVTITCRTSENIHNYLAWYQQKQGKSPQLLVYNAKTLADGVPSRFSGSGSGTQYSLKINSLQPEDFGTYYCQHFWSSPWTFGGGTKLEIK
notes: as for B1
B7: N4_mAb 5 (antibody, human IgG1, V domains shown)
VH: EVQLQQSGPDLVKPGASVKISCKASGYSFTGHYMHWVKQSHGKSLEWIGRVNPNNGGSSYNQKFKDKAILTVDKSSTTAYMELRSLTSEDSAVYYCARDPLGGSYGFAYWGQGTLVTVSA
VL: DIVLTQSPASLAVSLGQRATISCRASQSVTTSSYSYMHWYQQKPGQPPKLLIKYASNLESGVPARFSGSGSGTDFTLNIHPVEEEDTATYYCQHSWEIPYTFGGGTKLEMK
notes: as for B1
B8: N4_mAb 1 (antibody, human IgG1, V domains shown)
VH: QVQLKQSGPGLVQPSQSLSITCTVSGFSLTNYGVNWVRQPPGKGLEWLGVIWSGGSTDYNAAFISRLSISKDISKSQVFFKMNSLQADDTAKYYCAREGYDGYAMDYWGQGTSVTVSS
VL: DIQMTQSPASLSVSVGETVTITCRASENIFSSLAWYQQKQGKSPQLLVYGATNLADGVPSRFSGSGSGTQYSLKINSLQSEDFGTYWCQHFWGNPWTFGGGTKLEIK
notes: as for B2

By EC50 is commonly meant the concentration at which the effect is half-maximal.

Numbering of substitutions follows the chain as printed. A value given as a limit tells only on which side of the number the result lay.

In one test the target is T1, full-length human Nectin-4 on cells. The test is described as follows: cell-based or functional assay.
In the case of B1, the “Endocytosis EC50 (cell killing with MMAF-conjugated Fab anti-hFc), Nectin-4-CHO cells” value was 0.63 nM and the “Endocytosis EC50 (cell killing with MMAF-conjugated Fab anti-hFc), SKBR3 cells” value was 1.58 nM.
The like results for B2 were, in that order, 0.44 nM and 1.78 nM.
For B3, in that order: 0.43 nM and 0.99 nM.
The like results for B4 were, in that order, 0.21 nM and 0.61 nM.
B5: the “Endocytosis EC50 (cell killing with MMAF-conjugated Fab anti-hFc), Nectin-4-CHO cells” value was 0.53 nM and the “Endocytosis EC50 (cell killing with MMAF-conjugated Fab anti-hFc), SKBR3 cells” value turned out to be 0.63 nM.
For B6, in that order: 0.56 nM and 0.74 nM.
For B7, in that order: 0.45 nM and 0.85 nM.
The like results for B8 were, in that order, 0.36 nM and 2.14 nM.

Another test deals with T2, human Nectin-1 with His tag …. Put plainly: ELISA or Gator binding assay. In general terms: An ELISA detects its analyte on a solid surface through an enzyme-linked reagent.
For B1, the binding result is “no binding”.
Regarding B2, the binding result was “no binding”.
Still for that read-out and setting: under B3 stands “no binding”; under B4, “no binding”.
Regarding B5, the binding result was “no binding”.
Still for that read-out and setting: under B6 stands “no binding”; under B7, “no binding”.
The same measure, in the same setting: next, B8: “no binding”.

A further test deals with T3, human Nectin 2 (ACROBiosystems, Catalog …). The test is described as follows: ELISA or Gator binding assay.
As for B1, the binding result is given as “no binding”.
Regarding B2, the binding result was “no binding”.
On the same count and under the same terms, under B3 stands “no binding”; under B4, “no binding”.
Still for that read-out and setting: under B5 stands “no binding”.
Same read-out and setting: next, B6: “no binding”; B7: “no binding”.
As to B8, the binding result was “no binding”.

The target in a further test is T4, cynomolgus monkey Nectin-4. Put plainly: flow cytometry, transfected 293T cells; +++ EC50 less than 5 nM. The procedure:
CDNAs encoding Nectin-4 protein from cynomolgus monkey (SEQ ID NO: 62), rat (SEQ ID NO: 63), or mouse (SEQ ID NO: 64) were separately cloned into a pcDNA3.1-based mammalian expression plasmid. The respective plasmids were transfected to human 293T cells in a similar way described in Example 6. The binding EC50 of disclosed human Nectin-4 antibodies to species-specific Nectin-4 transiently expressed on 293T cell surface was measured by flow cytometry.
(In flow cytometry, cells or beads pass a laser one at a time.)
In turn, B1 displayed a half-maximal effective concentration (EC50) of under 5 nM.
With B2, the concentration for a half-maximal effect (EC50) was under 5 nM.
The same measure, in the same setting: under B3 stands under 5 nM.
Still for that read-out and setting: next, B4: under 5 nM; B5: under 5 nM.
Same read-out and setting: next, B6: under 5 nM; B7: under 5 nM; B8: under 5 nM.

For another test, the target named is T1, full-length human Nectin-4 on cells. Put plainly: flow cytometry competition on CHO-Nectin-4 cells; competitor biotinylated human TIGIT. The procedure: The ability of disclosed Nectin4-specific antibodies to block TIGIT binding to CHO-Nectin-4 cells was assessed by FACS. Briefly, CHO-Nectin-4 cells were incubated with dilutions of the disclosed purified recombinant antibodies. Then, biotinylated human TIGIT protein (SinoBiologic, catalog: 10917-H08H-B, lot: LC13AP0902) was added to the plate. After 30-minute incubation, cells were washed, followed by adding Streptavidin Alexa 647 (1:1000) to the samples. After a 30 minute incubation, the samples were analyzed on a flow cytometry instrument (Intellicyte, IQue plus, Sartorius) for TIGIT blocking activity. The positive control antibody used in this blocking assay is PC2, a Nectin-4 antibody with known blocking activity.
Molecule B2 registered a concentration giving a half-maximal response (EC50) of 0.31 nM.
On the same count and under the same terms, under B3 stands 1.37 nM.
Turning to B4, the half-maximal effective concentration (EC50) came out at 0.75 nM.
Still for that read-out and setting: under B5 stands 0.94 nM; under B6, 3.04 nM; under B7, 3.11 nM.
Same read-out and setting: next, B8: 0.91 nM.
